In publication PMC10880117:

B1: BAG1 (natural protein)
chain: MAQRGGARRPRGDRERLGSRLRALRPGREPRQSEPPAQRGPPPSGRPPARSTASGHDRPTRGAAAGARRPRMKKKTRRRSTRSEELTRSEELTLSEEATWSEEATQSEEATQGEEMNRSQEVTRDEESTRSEEVTREEMAAAGLTVTVTHSNEKHDLHVTSQQGSSEPVVQDLAQVVEEVIGVPQSFQKLIFKGKSLKEMETPLSALGIQDGCRVMLIGKKNSPQEEVELKKLKHLEKSVEKIADQLEELNKELTGIQQGFLPKDLQAEALCKLDRRVKATIEQFMKILEEIDTLILPENFKDSRLKRKGLVKKVQAFLAECDTVEQNICQETERLQSTNFALAE

What was measured:
[1] = molecular target: Human WT HSC70 (HSPA8) (human) (UniProt P11142)
[2] = molecular target: Human V95E HSC70 (HSPA8) (human) (UniProt P11142)

Molecule	pseudo-Km of DnaJB4-stimulated ATPase activity (malachite green assay, 1 μM HSC70 titrated with DnaJB4, 37°C, Michaelis-Menten fit) [1]	pseudo-Km of DnaJB4-stimulated ATPase activity (malachite green assay, 1 μM HSC70 titrated with DnaJB4, 37°C, Michaelis-Menten fit) [2]	stimulation of ATPase activity (malachite green assay, normalised percent) as BAG1 is titrated into HSC70 (1 μM) and DnaJB4 (0.1 μM); value at the highest concentration tested [2]
DnaJB4 (from UniProt Q9UDY4 1-337) (natural protein)	0.092 µM	0.088 µM	–
B1	–	–	25%
